Data from publication PMC4230322.

Substrate: CC/C(=C(\c1ccc(O)cc1)c1ccc(OCCN(C)C)cc1)c1ccccc1
Experiment: Initial rate kinetics of TAM sulfation
Type: biochemical, human
Details: other: TAM as substrate, pH 7.2, 25.0 °C

B1: SULT1A1 (Homo sapiens) (protein)
chain: MELIQDTSRPPLEYVKGVPLIKYFAEALGPLQSFQARPDDLLISTYPKSGTTWVSQILDMIYQGGDLEKCHRAPIFMRVPFLEFKAPGIPSGMETLKDTPAPRLLKTHLPLALLPQTLLDQKVKVVYVARNAKDVAVSYYHFYHMAKVHPEPGTWDSFLEKFMVGEVSYGSWYQHVQEWWELSRTHPVLYLFYEDMKENPKREIQKILEFVGRSLPEETVDFVVQHTSFKEMKKNPMTNYTTVPQEFMDHSISPFMRKGMAGDWKTTFTVAQNERFDADYAEKMAGCSLSFRSEL
B1 was tested, and the kcat (E·(PAP)2 form, [PAPS] 250 μM) was 11 s⁻¹, the Km (E·PAP form, [PAPS] 4.0 μM) was 14 (1.0) μM and the kcat (E·PAP form, [PAPS] 4.0 μM) was 2 s⁻¹.
